The values that follow come from patent US20210123927A1.

A value given as a limit tells only on which side of the number the result lay.

The target of this test is galactose-deficient IgA1 (Gd-IgA1), enzymatically generated (UniProt P01876). The experiment in a line: dot blot, anti-His detection.
Sequence of UniProt P01876 (P01876 other isoform, or with tags, fused parts or gaps): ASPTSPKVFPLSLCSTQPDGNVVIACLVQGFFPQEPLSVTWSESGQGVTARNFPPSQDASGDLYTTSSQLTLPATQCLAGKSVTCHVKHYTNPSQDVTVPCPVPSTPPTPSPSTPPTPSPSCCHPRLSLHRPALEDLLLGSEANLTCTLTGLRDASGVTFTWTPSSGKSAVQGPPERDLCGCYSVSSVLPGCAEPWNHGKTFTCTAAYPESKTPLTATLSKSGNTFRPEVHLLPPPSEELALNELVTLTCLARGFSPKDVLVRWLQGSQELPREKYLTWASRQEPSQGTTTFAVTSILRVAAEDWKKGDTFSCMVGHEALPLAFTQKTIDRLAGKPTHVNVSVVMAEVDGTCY

“RussiaSea-001 (Crenomytilus grayanus lectin/CGL), His-tagged (artificial RussiaSea-001) (from UniProt H2FH31 1-150)” gave an amount of Gd-IgA1 detected in dot blot of more than 1 µg.
